Target: HHLA2 (recombinant, SPR analyte) (human, UniProt Q9UM44 23-414)
Experiment: SPR

B1: KIR3DL3 (recombinant, coupled to the streptavidin sensor chip) (receptor)
chain: QDKPFLSAWPGTVVSEGQHVTLQCRSRLGFNEFSLSKEDGMPVPELYNRIFRNSFLMGPVTPAHAGTYRCCSSHPHSPTGWSAPSNPVVIMVTGVHRKPSLLAHPGPLVKSGETVILQCWSDVRFERFLLHREGITEDPLRLVGQLHDAGSQVNYSMGPMTPALAGTYRCFGSVTHLPYELSAPSDPLDIVVVGLYGKPSLSAQPGPTVQAGENVTLSCSSRSLFDIYHLSREAEAGELRLTAVLRVNGTFQANFPLGPVTHGGNYRCFGSFRALPHAWSDPSDPLPVSVTGNSRHL
B1 gave a Kd of 48.9 µM.
